Laboratory results: patent publication US9156883B2, “Binding molecules for human factor VIII and factor VIII-like proteins” (DYAX CORP., priority 1999, dated 2015)
Positions of bridges follow the written chain, without caps; N, C: chain ends. No end group written: not given here. *: point of attachment. NHNH2 = NN*

What was measured:
[1] = target: T1, factor VIII-like polypeptide (REFACTO®) (Homo sapiens, UniProt P00451); assay: Affinity chromatography capture and elution of REFACTO® on immobilized peptide columns; type: binding; settings: bound material eluted in the presence of ethylene glycol
T1 construct: amino acids 1-743 and 1638 through 2332 of human factor VIII; purchased Genetics Institute, Inc. (Cambridge, Mass.)
T1 sequence (P00451 20-762): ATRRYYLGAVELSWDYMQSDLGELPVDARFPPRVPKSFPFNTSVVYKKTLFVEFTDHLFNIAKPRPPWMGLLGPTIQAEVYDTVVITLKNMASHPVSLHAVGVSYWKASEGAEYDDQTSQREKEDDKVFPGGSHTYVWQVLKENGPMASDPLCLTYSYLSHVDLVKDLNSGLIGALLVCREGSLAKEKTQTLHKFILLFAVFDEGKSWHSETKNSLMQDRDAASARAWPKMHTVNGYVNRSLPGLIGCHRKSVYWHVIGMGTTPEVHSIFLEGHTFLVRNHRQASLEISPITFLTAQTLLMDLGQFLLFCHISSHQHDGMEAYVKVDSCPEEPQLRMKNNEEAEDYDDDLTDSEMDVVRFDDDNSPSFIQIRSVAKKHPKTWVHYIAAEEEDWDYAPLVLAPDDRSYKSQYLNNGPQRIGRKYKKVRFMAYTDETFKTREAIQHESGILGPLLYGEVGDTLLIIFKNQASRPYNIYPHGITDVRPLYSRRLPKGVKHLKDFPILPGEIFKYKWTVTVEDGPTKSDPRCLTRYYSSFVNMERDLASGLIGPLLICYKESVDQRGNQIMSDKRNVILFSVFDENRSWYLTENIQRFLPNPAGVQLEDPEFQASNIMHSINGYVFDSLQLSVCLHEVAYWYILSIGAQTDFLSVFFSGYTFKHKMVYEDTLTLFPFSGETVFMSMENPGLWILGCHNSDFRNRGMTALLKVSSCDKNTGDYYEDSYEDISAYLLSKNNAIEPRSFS
T1 sequence (P00451 1657-2351): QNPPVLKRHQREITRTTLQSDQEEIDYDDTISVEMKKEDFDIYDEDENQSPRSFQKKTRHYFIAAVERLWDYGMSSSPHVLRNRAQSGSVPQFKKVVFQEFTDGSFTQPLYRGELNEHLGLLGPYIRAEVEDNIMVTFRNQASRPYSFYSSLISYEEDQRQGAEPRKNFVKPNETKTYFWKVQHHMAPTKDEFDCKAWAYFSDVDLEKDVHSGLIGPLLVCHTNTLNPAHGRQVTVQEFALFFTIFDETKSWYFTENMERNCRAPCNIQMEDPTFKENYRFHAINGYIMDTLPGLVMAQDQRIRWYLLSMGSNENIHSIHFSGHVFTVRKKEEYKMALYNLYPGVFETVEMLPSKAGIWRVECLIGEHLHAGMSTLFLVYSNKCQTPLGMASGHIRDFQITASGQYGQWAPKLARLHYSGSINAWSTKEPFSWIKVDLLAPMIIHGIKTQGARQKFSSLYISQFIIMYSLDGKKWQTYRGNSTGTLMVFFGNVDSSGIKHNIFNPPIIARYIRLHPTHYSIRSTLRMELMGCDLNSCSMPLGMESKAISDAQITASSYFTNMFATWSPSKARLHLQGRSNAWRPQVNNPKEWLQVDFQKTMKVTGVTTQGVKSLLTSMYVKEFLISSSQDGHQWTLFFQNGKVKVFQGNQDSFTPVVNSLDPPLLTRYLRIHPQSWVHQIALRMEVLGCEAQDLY
Description: The candidate ligands were immobilized onto a formyl-substituted ethylene glycol-methacrylate chromatographic resin (Toyopearl Formyl 650-M, pore size of ˜1000 Å; TosoHaas, Montgomeryville, Pa.). The hydrazide-containing peptides were immobilized by facilitating hydrazone bond formation, the GI-1 and -2 peptides were immobilized via reductive amination using NaCNBH3. The amount of polypeptide immobilized on the solid support was determined by quantifying the amount of free polypeptide remaining in solution. The amount of ligand immobilized per ml of resin was in the range of 0.7-1.5 μmol for the hydrazine-immobilized peptides.
The nine peptides were evaluated by affinity chromatography for their ability to capture the REFACTO® described in Example I, under specific binding and release conditions.
The factor VIII-like polypeptide (REFACTO®) was diluted in SP Buffer to a concentration of 150 μg/ml. The affinity resins (˜350 μl) were each packed into glass columns, and approximately 150 μg of the factor VIII target was applied to the prepared affinity columns at a flow rate of 200 μl/minute (linear velocity of 170 cm/hour). […] Fractions were collected and the mass and activity of recovered factor VIII-like polypeptide was determined by reversed-phase HPLC and by enzymatic assay.
For the mass determination, a standard curve with REFACTO® (0-200 μg) was generated and the amount present in each fraction was calculated according to techniques well known in the art. Reversed-phase HPLC in the presence of 20 mM EDTA was used to disrupt the REFACTO® molecule into its component subunits, which were eluted with a gradient of acetonitrile/0.01% TFA. The activity assay was a Factor IX-, X-based assay. The results for each affinity resin are set forth below (Table 6).

[2] = Peptide stability, Asp-Pro changed to Glu-Pro; type: physicochemical; settings: DP changed to EP versus GI-2; Asp-Pro hydrolysis particularly at low pH
Source text: Binding polypeptides were synthesized with the amino terminal residue acetylated and the carboxyl terminal residue as a free acid. The two cysteine residues are oxidized and form a disulfide bond which creates a cyclic peptide structure. The residues contained within the cyclic structure are underlined. The peptide sequence is identical to the sequence GI-2 shown in Table 4 except that the aspartic acid residue at position 19 has been changed to glutamic acid (bold).

Row | Substance | capture of the factor VIII target by the affinity resin (in words) [1] | peptide stability (in words) [2]
1 | AEGTGDFHCIGVWFCLHDPGPEGGGS-NHNH2 (disulfide 9-15 (inferred)) [CS-455] | inability of the CS-455 and GI-1 resins to capture the target | 
2 | Ac-AEGTGDRLCSWVSPCSADPEGGGSK (cysteine pairing not given here) [GI-1] | inability of the CS-455 and GI-1 resins to capture the target | 
3 | AEGTGDHPCGSWLRPCLHDPGPEGGGS-NHNH2 (disulfide 9-16 (inferred)) [CS-453] | captured virtually all of the factor VIII target applied | 
4 | Acetyl-AEGTGDHRCGSWLHPCLAEPGEGGGGSK (Ac-AEGTGDHRCGSWLHPCLAEPGEGGGGSK; disulfide 9-16 (inferred)) [TN8.2, cyclic disulfide peptide, GI-2 with Asp at position 19 changed to Glu] |  | improved peptide stability
5 | AEGTGDFCWVFPFQHCADPGPEGGGS-NHNH2 (disulfide 8-16 (inferred)) [CS-459] | captured virtually all of the factor VIII target applied | 
